These results are taken from US7250304B2, “Functional assay of high-density lipoprotein” (The Regents of the University of California, priority 2000, dated 2007).

In assay [1] the test system is human artery wall cell cocultures. Nature of the assay: LDL oxidation by human artery wall cell cocultures (lipid hydroperoxides). Format: cell-based. The procedure:
(§1) The wells of the microtiter plates were treated with 0.1% gelatin at 37° C. overnight. HASMC were added at a confluent density of 1×10^5 cells/cm^2. Cells were cultured for 2 d at which time they had covered the entire surface of the well and had produced a substantial amount of extracellular matrix. HAEC were subsequently added at 2×10^5 cells/cm^2 and were allowed to grow forming a complete monolayer of confluent HAEC in 2 d. In all experiments, HAEC and autologous HASMC (from the same donor) were used at passage levels of four to six.
In general, the cocultures were treated with native LDL (250 μg/ml) in the absence or presence of HDL for 8 h. The supernatants were collected and used for determination of lipid hydroperoxide levels. The cocultures were subsequently washed and fresh culture medium 199 (M199) without any additions was added and incubated for an additional 8 hrs. This allowed the collection of monocyte chemotactic activity released by the cells as a result of stimulation by the oxidized LDL. At the end of incubation, the supernatants were collected from cocultures, diluted 40-fold, and assayed for monocyte chemotactic activity. […] The number of migrated monocytes was determined microscopically and expressed as the mean±SD of 12 standardized high power fields counted in quadruple wells.
Statistical significance was determined by model 1 ANOVA. […]

Assay [2] deals with Ox-PAPC, POVPC, PGPC, PEIPC. The format is cell-based, human.
Assay [3] deals with human artery wall cell cocultures. Kind of assay: Monocyte chemotaxis assay on coculture conditioned medium. The format is cell-based. The conditions noted are these: cocultures incubated 8 hrs with agent, agent removed before LDL. The procedure:
as §1
Monocytes were isolated using a modification of the Recalde method as previously described (Fogelman et al. (1988) J. Lipid Res. 29: 1243-1247) from the blood of normal volunteers after obtaining written consent under a protocol approved by the human research subject protection committee of the University of California, Los Angeles.
In general, the cocultures were treated with native LDL (250 μg/ml) in the absence or presence of HDL for 8 h. The supernatants were collected and used for determination of lipid hydroperoxide levels. The cocultures were subsequently washed and fresh culture medium 199 (M199) without any additions was added and incubated for an additional 8 hrs. […] The number of migrated monocytes was determined microscopically and expressed as the mean±SD of 12 standardized high power fields counted in quadruple wells.

B1: PON: purified human paraoxonase, HDL associated enzyme (protein, UniProt P27169 2-355, looked up)
Serum …: AKLIALTLLGMGLALFRNHQSSYQTRLNALREVQPVELPNCNLVKGIETGSEDLEILPNGLAFISSGLKYPGIKSFNPNSPGKILLMDLNEEDPTVLELGITGSKFDVSSFNPHGISTFTDEDNAMYLLVVNHPDAKSTVELFKFQEEEKSLLHLKTIRHKLLPNLNDIVAVGPEHFYGTNDHYFLDPYLQSWEMYLGLAWSYVVYYSPSEVRVVAEGFDFANGINISPDGKYVYIAELLAHKIHVYEKHANWTLTPLKSLDFNTLVDNISVDPETGDLWVGCHPNGMKIFFYDSENPPASEVLRIQNILTEEPKVTQVYAENGTVLQGSTVASVYKGKLLIGTVFHKALYCEL
As for B1, the “ability of pretreated artery wall cocultures to oxidize LDL” value in assay [1] (cocultures incubated 8 hrs with agent, agent removed before LDL 250 μg/ml) was “rendered the artery wall cells incapable of oxidizing IDL”. Further, the “oxidation by artery wall cells of LDL pre-incubated with the agent” value in assay [1] (human LDL incubated with agent, re-isolated, then cocultures 8 hrs) is recorded as “rendered the LDL resistant to oxidation”. Moreover, in assay [2], the “biologic activity (induction of monocyte chemotactic activity) of Ox-PAPC, POVPC, PGPC, PEIPC after incubation with enzyme” value is given as “destruction of the biologic activity of each”. Besides, the “LDL-induced monocyte chemotaxis in pretreated cocultures” value in assay [3] is “prevented LDL-induced monocyte chemotaxis”.
